According to US20210032351A1 (XDCEXPLORER SHANGHAI, published 2021):

Experiments:
[1] = biological target: T1, human EGFRvIII-hFc protein (human, UniProt P00533 25-645); assay: ELISA, coated EGFRvIII-hFc, antibody 0.01 nM
T1 construct: extracellular domain; made in HEK293 cells, purified on protein A; also called immunogen A; hFc-tagged EGFRvIII protein; not shown: human IgG Fc fragment (hFc) of the pCpC vector
Experimental: (§1) The purified immunogen A (EGFRvIII-hFc) obtained in example 1 (for the preparation method, see step (I) in example 1) is diluted with PBS to a final concentration of 1.0 μg/mL, and then added to a 96-well ELISA plate at 100 μl/well. The plate is sealed with a plastic film and incubated at 4° C. overnight. The next day, the plate is washed twice with a plate washing solution [PBS+0.01% (v/v) Tween20], and added with a blocking solution [PBS+0.01% (v/v) Tween20+1% (w/w) BSA] for blocking 2 hours at room temperature. The blocking solution is discarded, and the purified EGFRvIII antibody obtained in example 2 is added at 100 μl/well. The plate is incubated for 2 hours at 37° C., and then washed 3 times with the plate washing solution [PBS+0.01% (v/v) Tween20]. The plate is added with an HRP (horseradish peroxidase) labeled secondary antibody (purchased from Sigma), incubated at 37° C. for 2 hours, and then washed 3 times with the plate washing solution [PBS+0.01% (v/v) Tween20]. The plate is added with 100 μl of TMB substrate/well, incubated for 30 minutes at room temperature, and then added with 100 μl of stopping solution (1.0N HCl)/well. A450 nm value is read using an ELISA plate reader (SpectraMax 384plus, purchased from Molecular Device), and the results are shown in FIG. 6 and table 10.

[2] = biological target: T1, human EGFRvIII-hFc protein; assay: ELISA, coated EGFRvIII-hFc, antibody 0.001 nM
Experimental: as §1

[3] = biological target: T1, human EGFRvIII-hFc protein; assay: ELISA, coated EGFRvIII-hFc, antibody 0.1 nM
Experimental: as §1

[4] = biological target: T1, human EGFRvIII-hFc protein; assay: ELISA, coated EGFRvIII-hFc, antibody 10 nM
Experimental: as §1

[5] = biological target: T1, human EGFRvIII-hFc protein; assay: ELISA, coated EGFRvIII-hFc, antibody 100 nM
Experimental: as §1

[6] = biological target: T2, human EGFR protein (wild-type), on cells (human, UniProt P00533 25-1210); assay: FACS on U87MG and HEB cells
T2 construct: whole, on cells; transfected on CHO-K1 cells; endogenous on the human cell lines; the cell is named under assay; also called wild-type EGFR; hEGFR
Experimental: The collected cells are suspended to 2×10⁶ cells/mL with an FACS buffer (HBSS+1% BSA, with the percentage being the mass percentage), added to a 96-well FACS reaction plate at 100 μL/well, then added with 100 μL/well of the purified EGFRvIII antibody (samples to be tested) obtained in example 2, and incubated on ice for 2 hours. The plate is centrifugally washed twice with the FACS buffer, added with 100 μL/well of a fluorescence (Alexa 488) labeled secondary antibody (purchased from Invitrogen), and then incubated on ice for 1 hour. The plate is centrifugally washed 3 times with the FACS buffer, added with 100 μL/well of a fixing solution [4% (v/v) paraformaldehyde] for suspending the cells, and centrifugally washed twice with the FACS buffer after 10 minutes. The cells are suspended in 100 μL of the FACS buffer, and the results are detected and analyzed by FACS (FACS Calibur, purchased from BD). Data analysis is performed by using the software (CellQuest) to obtain the mean fluorescence intensity (MFI) of the cells. Data is further analyzed by using the software (GraphPad Prism5) to perform data fitting and calculate EC50. […] A431 cells (human epidermal cell cancer cell lines) have a large amount of wild-type EGFR protein expressed on the surface thereof. […] U87MG cells (human glioma cell lines) have a small amount of wild-type EGFR protein expressed on the surface thereof, while HEB cells (human glioma cell lines) have a high level of wild-type EGFR protein expression on the surface thereof.

[7] = biological target: T1, human EGFRvIII-hFc protein; assay: ELISA, coated EGFRvIII-hFc, antibody 1 nM
Experimental: as §1

[8] = biological target: T1, human EGFRvIII-hFc protein; assay: ELISA, coated EGFRvIII-hFc, antibody 0.0001 nM
Experimental: as §1

[9] = biological target: T3, human EGFRvIII-hFc protein (human, UniProt P00533 25-645); assay: ELISA, EGFRvIII-hFc coated
T3 construct: extracellular domain; also called immunogen A; hFc-tagged EGFRvIII protein; not shown: human IgG Fc fragment (hFc) of the pCpC vector
Experimental: The purified humanized anti-EGFRvIII antibody obtained in example 12 is reacted with a human EGFRvIII-hFc protein.
as §1, with “The blocking solution is discarded, and the purified EGFRvIII antibody obtained in example 2 is added at 100 μl/well.” left out, “Device).” for “Device), and the results are shown in FIG. 6 and table 10.”

[10] = biological target: T4, human wild-type EGFR protein on the cell surface (human, UniProt P00533 25-1210); assay: FACS on A431 tumor cells
T4 construct: whole, on cells; Endogenous on A431, HEB, U87MG cells and normal human primary hepatocytes; transfected on CHOk1-EGFR cells; The cell is named under assay; also called A431; HEB
Experimental: (§2) The preparation of U87MG-EGFRvIII required for FACS detection is as described in the preparation of the immunogen B in example 1. Normal human primary hepatocytes are purchased from BioreclamationIVT, and A431 tumor cells are purchased from ATCC. The recovered hepatocytes are directly used for FACS detection, and the recovered U87MG-EGFRvIII and A431 cells are subjected to an expanded culture to 90% confluence in a T-75 cell culture flask; the medium is sucked out, and the cells are washed twice with a HBSS buffer (Hanks Balanced Salt Solution) (purchased from Invitrogen), and then treated with an enzyme-free cell dissociation solution (Versene solution: purchased from Life Technology) and collected. The cells are washed twice with the HBSS buffer and are counted, and then the cells are diluted with the HBSS buffer to 2×10⁶ cells/ml, added with 1% goat serum blocking solution, with the percentage being the mass percentage, and incubated on ice for 30 minutes, and then centrifugally washed twice with the HBSS buffer. The collected cells are resuspended to 2×10⁶ cells/mL with an FACS buffer (HBSS+2% FBS, with the percentage being the volume percentage), added to a 96-well FACS reaction plate at 100 μL/well, then added with 100 μL/well of the purified EGFRvIII antibody (samples to be tested) obtained in example 12, and incubated on ice for 2 hours. The plate is centrifugally washed twice with the FACS buffer, added with 100 μL/well of a 1:1000 diluted fluorescence (Alexa 488) labeled secondary antibody (purchased from Invitrogen), and incubated on ice for 1 hour. The plate is centrifugally washed 3 times with the FACS buffer, added with 100 μL/well of a fixing solution [4% (v/v) paraformaldehyde] to resuspend the cells, and centrifugally washed twice with the FACS buffer after 10 minutes. The cells are resuspended in 100 μL of the FACS buffer, and the results are detected and analyzed by FACS (FACS Calibur, purchased from BD). Data analysis is performed by using the software (CellQuest) to obtain the mean fluorescence intensity (MFI) of the cells. Data is further analyzed by using the software (GraphPad Prism5) to perform data fitting and calculate EC50.

[11] = biological target: T5, human EGFRvIII protein on the cell surface (human, UniProt P00533 25-1210); assay: FACS on U87MG-EGFRvIII cells
T5 construct: whole, on cells; the cell line is named under assay; also called hEGFRvIII; U87MG-hEGFRvIII
Experimental: as §2

[12] = biological target: T4, human wild-type EGFR protein on the …; assay: FACS, MFI on A431 cells over MFI on normal primary hepatocytes
Experimental: as §2

[13] = biological target: T4, human wild-type EGFR protein on the …; assay: FACS on normal human primary hepatocytes
Experimental: as §2

Binder | OD450 nm [1] | OD450 nm [2] | OD450 nm [3] | OD450 nm [4] | OD450 nm [5] | binding result [6] | OD450 nm [7] | OD450 nm [8] | EC50 [9] | Maximum OD450 value [9] | MFI [10] | EC50 [11] | Maximum mean fluorescence intensity [11] | Selective window (MFI A431/Hepatocytes) [12] | MFI [13]
Murine anti-64B11 (antibody, V domains shown, murine hybridoma antibody; also called 64B11F2) VH: EVQLQQSGAELVKPGASVKLSCTASGFNIKDYYMHWVKQRTEQGLEWIGRIDPEDGETKYAPKFQGKATITADTSSNTAYLQLSNLPSEDTAVYYCGCRTGGFAYWGQGTLVTVSA VL: DILMTQSPSSMSVSLGDTVSITCHASQGINSNIGWLQQKPGKSFKALIYHGTNLEDGVPSRFSGSGSGADYSLTISSLESEDFADYYCVQYAQFPFTFGSGTELEIK | 0.09 | 0.08 | 0.24 | 3.63 | 3.64 | no binding | 1.58 | 0.08 | – | – | – | – | – | – | –
Murine anti-49G12 (antibody, V domains shown, murine hybridoma antibody; also called 49G12G5) VH: EVQLLQSGAELVKPGASVKLSCTASGFNIKDYYMHWVKQRTEQGLEWIGRIDPEDGETKYAPKFQGKATMTADTSSNTAYLQLSSLTSEDTAVYYCASSAYYGRNYWGQGTTLTVSS VL: QIVLTQSPAIMSASPGEKVTLTCSASSSLSSSYLYWYQQKPGSSPKLWIYSTSNLASGVPARFSGSGSGTSYSLTISSMEAEDAASYFCHQWSSYPYTFGGGTKLEIK | 0.14 | 0.13 | 0.64 | 3.8 | 3.79 | no binding | 3.2 | 0.08 | – | – | – | – | – | – | –
Murine anti-51G7 (antibody, V domains shown, murine hybridoma antibody; also called 51G7C2) VH: EVQLQQSGAELVKPGASVKLSCTASGFNIKDFYIHWVKQRTEQGLEWIGRIDPEDGETKYAPKFQDKATIIADTSSNTAYLQLSSLTSEDTAVYYCASSSYYGNNYWGQGTTLTVSS VL: QIVLTQSPAIMSASPGEKVTLTCSASSSVSSNYLYWYQQKPGSSPKLWIYSTSNLASGVPARFSGSGSGTSYSLTISSMEAEDAASYFCHQWSSFPYTFGGGTKLEIK | 0.15 | 0.09 | 0.46 | 3.69 | 3.68 | no binding | 2.44 | 0.08 | – | – | – | – | – | – | –
Humanized antibody h75G7C6-9 (antibody, human IgG1, V domains shown, also called VH-g1/VL-g0) VH: QVQLVQSGAEVKKPGASVKVSCKASGYTFTDYNMDWVRQAPGQGLEWIGDINPNNADTIYNQKFKGRVTLTVDTSTSTVYMELSSLRSEDTAVYYCARGDYDGYYPVYYAMDYWGQGTTVTVSS VL: EIVLTQSPATLSLSPGERATLSCRASSSVSSSYLHWYQQKPGQAPRLLIYSTSNLAAGIPARFSGSGSGTDFTLTISSLEPEDFAVYYCQQYSGYPLTFGGGTKVEIK | – | – | – | – | – | – | – | – | 0.58 nM | 2.83 OD450 | 10700 MFI | 5.83 nM | 18200 MFI | 45 fold | 238 MFI
Murine anti-46C4 (antibody, V domains shown, murine hybridoma antibody; also called 46C4A6) VH: EVHLQQSVAELVRPGASVKLSCTASGFNIKNTYMHWVKQRPEQGLEWIGRIDPANGNTKYAPKFQGKATITADTSSNTAYLQLSSLTSEDTAIYYCASDFDYWGQGTTLTVSS VL: DVLMTQTPLSLPVSLGDQVSISCRSSQSIVNSNGNTHLEWYLQKPGQSPKVLIYKVSKRFSGVPDRFSGSGSGTDFTLKISRVEAEDLGVYYCFQGSHVPYTFGGGTKLEIK | 0.15 | 0.09 | 0.72 | 3.85 | 3.83 | no binding | 3.5 | 0.08 | – | – | – | – | – | – | –
